The results in this text go back to the DeepSol protein solubility set.

This data set can be described thus: soluble on expression in E. coli; label from the status in PepcDB or PDB records.
Take “MSLTAQIRLAEPADLNDDTLRARAVAAARGDQRFDVLITGGTLVDVVTGELRPADIGIVGALIASVHEPASRRDAAQVIDAGGAYVSPGLIDTHMHIESSMITPAAYAAAVVARGVTTIVWDPHEFGNVHGVDGVRWAAKAIENLPLRAILLAPSCVPSAPGLERGGADFDAAILADLLSWPEIGGIAEIMNMRGVIERDPRMSGIVQAGLAAEKLVCGHARGLKNADLNAFMAAGVSSDHELVSGEDLMAKLRAGLTIELRGSHDHLLPEFVAALNTLGHLPQTVTLCTDDVFPDDLLQGGGLDDVVRRLVRYGLKPEWALRAATLNAAQRLGRSDLGLIAAGRRADIVVFEDLNGFSARHVLASGRAVAEGGRMLVDIPTCDTTVLKGSMKLPLRMANDFLVKSQGAKVRLATIDRPRFTQWGETEADVKDGFVVPPEGATMISVTHRHGMAEPTTKTGFLTGWGRWNGAFATTVSHDSHNLTVFGGNAGDMALAANAVIGTGGGMAVASEGKVTAILPLPLSGLVSDAPLEEVARAFEDLREAVGKVVEWQPPYLVFKACFGATLACNIGPHQTDMGIADVLTGKVMESPVIEVLGEGHHHHHH”: the “soluble on expression in E. coli” value is listed as “soluble”.
Regarding “MSLTARIDQLLLERLKSAGVEPAPAADDGEFLRRAYLDLSGTIPPVAITRDYLADSSPAKRRQLIERLLASPAFASHLASTWREIILKPTDDFQQLQNQFALQAWLREQFSENARYDRIVEQFITASSEQDGPVYFYDALDLKPEQLAAETSRIFLGLHIQCAECHDHPFDDWKQRDFWGYAAFFARVAKRDSAMGRISEGHHHHHH”, the “soluble on expression in E. coli” value was “soluble”.
With “MSLTDLNRTDLNRTDLNRTDLNRTDLNRTALPSRTDGTVEKTDTLVVGAGQAGVAMSEHLSRLGVPHLVLERNRIAEAWRSGRWDSLVANGPAWHDRFPGMEFDIDPDGFPGKDQVAAYFEAYAKKFDAPIRTGVEVRKVVRNVGRPGFTVETSAGTIEANRVVAATGPFQRPVIPPIAPRDERIRQIHSAHYYNPQQLPEGAVLVVGAGSSGVQIADELQRAGRQVYLSVGAHDRPPRSYRNRDFCWWLGVLGEWDAEVAKPGREHVTIAVSGARGGHTVDFRALAHQGVTLVGLTESFVDGVATFRPDLAENLARGDENYLALLDAADAYIARNGLDLPEEPEARRRLPDPQCVTDPILELDLAEAGVGSIIWATGYAVDFGWLQVDAFDRDGKPRHQRGVSSEPGVYFIGLPWLSRRGSSFIWGVWHDARHVADHIAIQRKYLAYRDAAQRQEQDRASQAPQTSLQEVSEGHHHHHH” the entry was “soluble”.
As for “MSLTEKVSVFALGGAGEIGKNMYVVELDEDIFVIDAGLMFPGDEMLGIDKVIPDISYLKENKERIQGIFITHGHEDHIGALSYVLRDLKVPVYGTRLTLGLIEIKLKEAGLLKKADLRPIDAKTKLTVAGHFITFFRVNHSIPDAVGVCIQTSQGAIVHTGDFKFDYTPVDGKQADFGKIAAIGQRGVLCLLSDSTNAERPGMSGSESTVGSELNDVIYEAPGRVIVASFASNVHRLQQVFAAAEANNEGHHHHHH”, the “soluble on expression in E. coli” value is “soluble”.
For the sequence “MSLTELSAFPITRKWPAKHPERLQLYSLPTPNGVKVSIMLEEIGLAYEAHKVSFDNDDQLSPEFISLSANNKIPAILDPNGPGGQPLALFESGAILQYLAEKSGQLLSQDPAQRYQTLQWLMFQMGGIGPMFGQVGFFHFFAGKEYEDKRPRDRYVNESKRLLGVLDRHLKGRQWMAEEYSIADIAIFPWVRNLVERYNARDLVGFDQFKEVQRVLANFLERPAVQRGLKIPGEGHHHHHH”, the “soluble on expression in E. coli” value is “soluble”.
The result for “MSLTELYAKSDLEKIKETLPGWQLDSFNYLNEKIGDKENKFPCIPGRQAFLSDQLRIAFVGDPRNPETAKELAPLLTRYGTISRETGKYASLTVIFHTPEELLTDYKIEDYESLFWQLLNSLSMEDPADWPDDIPENPDNFQWEYCFNGEPYFVLCATPAHSKRKSRSFPYFMLTFQPRWVFEDLNDTTAFGRNMSKQIRKRLEAYDEVPIHPHLGWYGKKDNLEWKQYFLRDDENQVSQCPFMKMKNLFKKERSDEGHHHHHH” reads “soluble”; that for “MSLTFLTGVPGFLGTRLLRRLAAAAPDRSFLLLVQPKFEGRTHTLLADRGLADRATVLPGDITEPDLGLGAHYDAVAEQITRAVHLAAVYDLTIPREVGWQVNVEGTRHVLDLLAQCPSLERFGYVSSAYVSGERTGTIHEDELVHEAGFKNFYEETKYHAEVLVQDRMDEIPTLVFRPSIVVGDSETGATDKFDGVYFVLNALRSLPRYTPMTRIGSGTEPVNLVPVDFVVDAMGHLLGTEGHAGTVFHLTDPRPLTAQAIMELLADLLDKRVAYVPVPPGLARAMMKTGVGRALGLAPELIDYFDHPSHYDASNTRAALDGTGIDCPFLPDYAPAMVAYARRHDARSSAMYEGHHHHHH”, “not soluble”.
As for “MSLTGGISAFGRMVWEGIQIAHEEKPTVLGEEVELVLLDTRSEKTEAANAAARAIDKEKVLAIIGEVASAHSLAIAPIAEENKVPMVTPASTNPLVTQGRKFVSRVCFIDPFQGAAMAVFAYKNLGAKRVVVFTDVEQDYSVGLSNFFINKFTELGGQVKRVFFRSGDQDFSAQLSVAMSFNPDAIYITGYYPEIALISRQARQLGFTGYILAGDGADAPELIEIGGEAVEGLLFTTHYHPKAASNPVAKKFVEVYKEKYGKEPAALNALGYDAYMVLLDAIERAGSFDREKIAEEIRKTRNFNGASGIINIDENGDEGHHHHHH”, the “soluble on expression in E. coli” value was “not soluble”.
As to “MSLTGKKIETHLEDMVAQANAQLKLTAPESNLEVSYQNYHRGVFSSQLQLLVKPIAGKENPWIKSGQSVIFNESVDHGPFPLAQLKKLNLIPSMASIQTTLVNNEVSKPLFDMAKGETPFEINSRIGYSGDSSSDISLKPLNYEQKDEKVAFSGGEFQLNADRDAKPSPFPGRRKVVRIDAVNEYNQKVQLTFNNLKTDGSSTLASFGERVGNQKLSLEKMTISVEGKELALLEGMEISGKSDLVNDGKTINSQLDYSLNSLKVQNQDLGSGKLTLKVGQIDGEAWHQFSQQYNAQTQALSRQPEIANNPELYQEKVTEAFFSALPLMLKGDPVITIAPLSWKNSQGESALNLSLFLKDPATTKEAPQTLAQEVDRSVKSLDAKLTIPVDMATEFMTQVARKVIRKIKRKNWRNSKLKVHQQWGRCSVEGHHHHHH”, the “soluble on expression in E. coli” value is “not soluble”.
As for “MSLTHTVHLHLEETDNLALQRLCGSFDNNLDLLAKALDIHISRRFEHFTFNGAFAHAGKRALLKLLETAQTRDLNDGDIRLAAVEAQTEDAGHQEKNHDHAYYFRTKRGSIGGRTPRQNGYIRALLNHDIVFGLGPAGTGKTYLAVAAAVDAMEKHQVERIILVRPAVEAGEKLGFLPGDLTQKVDPYLRPLYDALYDLMGFDRVTKLIEKGLIEIAPLAYMRGRTLNGAYIILDEAQNTTPEQMKMFLTRIGFGAKAVITGDTSQIDLPKNIKSGLKDAREKLHNVEGLYFHTFTGEDVVRHPLVQKIVEAYESAEHDEGGSHHHHHH”, the “soluble on expression in E. coli” value was “soluble”.
Turning to “MSLTISILGARVIDPNSGLDQVTDLHLDGGRIVAIGAAPAGFSASRTIQADGLVAAPGLVDLGVSLREPGYSRKGNIASETRAAVAGGVTSLCCPPQTKPVLDTSAVAELILDRAREAANSKVYPVGALTKGLEGEQLAELVALRDTGCVAFGNGLKEIPNNRTLARALEYAATFDLTVVFHSQDRDLAQGGLAHEGAMASFLGLPGIPESAETVALARNLLLVEQSGVRAHFSQITSARGARLIAQAQALGLPVTADVALYQLILTDESLREFSSLYHVQPPLRTAADRDGLREAVKSGVIQAISSHHQPHERDAKLAPFGATEPGISSVELLLPLAMTLVQDGLLDLPTLLARLSSGPAAALRLPAGELKVGGAADLVLFDPQASTVAGEQWFSRGENCPFIGHCLPGAVRYTLVDGHICHEAEGHHHHHH”, the “soluble on expression in E. coli” value is recorded as “soluble”.
The result for “MSLTISNEDNMILMSRYPDKYFDLAIVDPPYGILNKTKRGGDYKFNMNEYSQWDIKPDQTYFNELFRVSKNQIIWGGNYFGELWLRSEYNKGFIIWDKNQPETLNNFSMAEMAWSSFDRPSKIFRFSVRKNRNKTHPTQKPVELYQWLLKMYAKQGDKILDTHLGSGTLAIACCIAQFDLTACEINSDYYQQSIEKIKNNLPEARISFGHPGYCIIEEGGSHHHHHH” reads “soluble”; that for “MSLTKILIGQTAGFTGPAGEQVKEMTRGAQLYLDAVNRAGGVYGRRIELISEDDGFDANVSKQRAHTLLTDKQVFALFLSRGTPNTEAIMSEAHAVGAPMVAPSTGASIFFDRPDPLVFVVRAKYQTEIAELVHHFETLGLKRLALVNVNDSFGKDTEAGFTTATQHLPPSTHQIVTVDRLKPNIETATAEIGKFAPNAVILACAGTTAQALAEALTKHGTVSQMATLSNNSSTAFARSLGNMARGMMVTQVMPSPVRATSPIGRELTASAKAAGVMPSYGMMEGYASAKLLVEGLKRAGKAPTRASFVAGLEAAGTIDLGGLDIRNGRNNHKGSSFVEITVIGPHGTFIKEGHHHHHH”, “not soluble”; that for “MSLTLLALGINHKTAPVSLRERVSFSPDKLDQALDSLLAQPMVQGGVVLSTCNRTELYLSVEERDDLQEALIRWLCDYHNLNEDDLRNSLYWHQDNDAVSHLMRVASGLDSLVLGEPQILGQVKKAFADSQKGHMKASELERMFQKSFSVAKRVRTETDIGASAVSVAFAACTLARQIFESLSTVTVLLVGAGETIELVARHLREHKVQKMIIANRTRERAQILADEVGAEVIALSDIDERLREADIIISSTASPLPIIGKGMVERALKSRRNQPMLLVDIAVPRDVEPEVGKLANAYLYSVDDLQSIISHNLAQREGHHHHHH”, “not soluble”.
With “MSLTNEFEILKPGKLLLASANLLDPNFKRTVLLMCEHNEEGSIGFILNKPMEFKVCEAISGFDEIDEPLHMGGPVQVDTVHVLHTRGDVIDGAVEVIPGLFWGGDKEQLSYLINTGVIKASEVRFFLGYAGWSAGQLEAEFEEGSWYTADASSEQVFTDEYERMWSRSVRSKGGEYCYVANSPELPGMNEGHHHHHH” the entry was “soluble”.
“MSLTNSDWMPTASISQLKQRATLLRQIREFFAERNVLEVETPAMSHATVTDIHLHTFKTEFVGPGYAKGSALHLMTSPEFHMKRLLAAGSGCIYQLGKAFRNEENGRYHNPEFTMLEWYRIGFDHHALMDEMDALLQLVLRCGSAERMTYQEAFLNVLGVCPLEEEMRELKQVAATLGLSDIAEPEEDRDTLLQLLFSIGIEPKIGQITPAFVYDFPASQAALAKINPADPRVADRFEVYFKGIELANGFHELDNPAEQLARFKADNAKRLEMGLTEQPIDYHLIAALEAGLPECAGVALGIDRLIMLALGEDHIDKVTAFPFPRAEGHHHHHH”: the “soluble on expression in E. coli” value was “soluble”.
With “MSLTPIEAMKLAAGEIAGEKSLKTLAEVVDILSQEQDVTKRFGQKGLGQRNLGRAVQLLVESSETNEGRCMVAYDVFKSLERIVLDYVPDQNDRAKYLEDLKIAKGLYRERIMTEMFNAYMDEPYAVKKDVMNYVNMIIGIDAESLGPDRMWKYKDPQTGELKALKIDERYVKNVEDRLGLKTDEQRESFRTSIRKIYGQKISVDSTYDFMDNLELVKAVTDVRLKSDIAGAGSLIGALANRTNEENQKLYDRMVDTMLKKLGYCRTCAQKTIEYFCTQEDEGHHHHHH”, the “soluble on expression in E. coli” value was “soluble”.
With “MSLTQNAVEKTPVTMLGLGAMGTALARTWLAAGHRLTVWNRTPARAAALAAEGARVADSAAEAVAANTLVIVCLLDDSSVDEVLAGIDLADTDLVNLTTSTPAQARARAEWANERGARYLDGGIMAVPPMIGVPEAGSYVFCSGSRELFERHQETLGIPAGTTYVGMDAGFAALHDMALLSAMYGMFAGVAHAFALIHKEDIDPTSLAPMLADWLVAMAPAVHQTADHLRSGDYTKGVVSTLAMQVAGTPTFLSTAEQQGVSPELLSPYFELMRRRLAEGSGEEDLTGVINLLVHEGHHHHHH”, the “soluble on expression in E. coli” value is reported as “not soluble”.
